Data: patent US20210062216

Target: T1, Myc:SlRin4-3 (pGWB518, N-terminal Myc tag)
T1 chain: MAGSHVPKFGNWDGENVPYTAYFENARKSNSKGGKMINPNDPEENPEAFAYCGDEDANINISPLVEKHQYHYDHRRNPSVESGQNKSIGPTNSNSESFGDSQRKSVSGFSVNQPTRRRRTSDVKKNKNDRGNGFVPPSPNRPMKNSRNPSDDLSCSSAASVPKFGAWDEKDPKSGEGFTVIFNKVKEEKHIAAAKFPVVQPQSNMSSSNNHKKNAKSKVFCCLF

B1: AvrRpt2:Myc (avrRpt2 of Pseudomonas syringae pv. tomato NY15125 in pGWB417, C-terminal Myc tag) (protein)
chain: MKIAPVAINHSPLSREVPSHAAPTQAKQTNLQSEAGDLDARKSSASSPETRALLATKTVLGRHKIEVPAFGGWFKKKSSKHETGGSSANADSSSVASDSTEKPLFRLTHVPYVSQGNERMGCWYACARMVGHSVEAGPRLGLPELYEGREGPAGLQDFSDVERFIHNEGLTRVDLPDNERFTHEELGALLYKHGPIIFGWKTPNDSWHMSVLTGVDKETSSITFHDPRQGPDLAMPLDYFNQRLAWQVPHAMLYR
With B1 the “abundance of Rin4 protein, c-Myc immunoblot of N. benthamiana leaves 28 hr after agroinfiltration” value was “a decrease in the abundance of Rin4 protein”.
